This is an account of results in patent US20140087995A1 (published 2014).

Numbered stars: 1 amine (or outer) side, 2 acyl side, 3 side chain; on linkers, the order of the positions; unused ones are H or OH. Bridge positions count the residues as written; N and C are the ends. Side chains are listed from the residue outwards. Ends that are not written are not given here. * marks the point of attachment. C20 diacid = O=C(O)CCCCCCCCCCCCCCCCCCC(=O)*; γGlu = O=C(O)[C@H](CCC(=O)[*:2])N[*:1]

To fix the notation:
T1: human calcitonin receptor (human, UniProt P30988 25-474)
T1 sequence (looked up): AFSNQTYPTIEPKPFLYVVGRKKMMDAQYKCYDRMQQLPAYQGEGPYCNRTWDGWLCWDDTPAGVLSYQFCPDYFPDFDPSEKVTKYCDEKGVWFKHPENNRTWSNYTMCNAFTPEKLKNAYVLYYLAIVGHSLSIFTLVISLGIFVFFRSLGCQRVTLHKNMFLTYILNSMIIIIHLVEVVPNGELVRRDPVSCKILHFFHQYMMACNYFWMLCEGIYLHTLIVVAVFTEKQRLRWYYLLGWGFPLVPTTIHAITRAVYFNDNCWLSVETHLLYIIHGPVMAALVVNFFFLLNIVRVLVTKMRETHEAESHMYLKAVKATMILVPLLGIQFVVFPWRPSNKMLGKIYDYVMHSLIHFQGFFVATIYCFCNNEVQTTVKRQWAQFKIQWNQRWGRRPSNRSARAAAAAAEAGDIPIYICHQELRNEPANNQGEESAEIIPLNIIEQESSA

T2: human amylin receptor (amylin 3(a) receptor: human calcitonin receptor coexpressed with RAMP-3) (human, UniProt P30988 25-474; O60896 24-148)
T2 sequence (looked up) 1: T1 sequence (looked up)
T2 sequence (looked up) 2: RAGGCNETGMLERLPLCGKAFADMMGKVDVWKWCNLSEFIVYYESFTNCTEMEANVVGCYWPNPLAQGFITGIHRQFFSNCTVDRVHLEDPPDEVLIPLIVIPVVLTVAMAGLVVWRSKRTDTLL

B1: N^ε1-[(4S)-4-carboxy-4-(19-carboxynonadecanoylamino)butanoyl]-[Arg17,Pro21,Pro27,Arg34]-h-amylin (peptide)
peptide: K([γGlu-C20 diacid])CNTATCATQRLANFLRHSSPNFGAIPSSTNVGRNTY-NH2
modifications: disulfide 2-7; N-terminus assumed
SMILES: CC[C@H](C)[C@H](NC(=O)[C@H](C)NC(=O)CNC(=O)[C@H](Cc1ccccc1)NC(=O)[C@H](CC(N)=O)NC(=O)[C@@H]1CCCN1C(=O)[C@H](CO)NC(=O)[C@H](CO)NC(=O)[C@H](Cc1c[nH]cn1)NC(=O)[C@H](CCCNC(=N)N)NC(=O)[C@H](CC(C)C)NC(=O)[C@H](Cc1ccccc1)NC(=O)[C@H](CC(N)=O)NC(=O)[C@H](C)NC(=O)[C@H](CC(C)C)NC(=O)[C@H](CCCNC(=N)N)NC(=O)[C@H](CCC(N)=O)NC(=O)[C@@H](NC(=O)[C@H](C)NC(=O)[C@@H]1CSSC[C@H](NC(=O)[C@@H](N)CCCCNC(=O)CC[C@H](NC(=O)CCCCCCCCCCCCCCCCCCC(=O)O)C(=O)O)C(=O)N[C@@H](CC(N)=O)C(=O)N[C@@H]([C@@H](C)O)C(=O)N[C@@H](C)C(=O)N[C@@H]([C@@H](C)O)C(=O)N1)[C@@H](C)O)C(=O)N1CCC[C@H]1C(=O)N[C@@H](CO)C(=O)N[C@@H](CO)C(=O)N[C@H](C(=O)N[C@@H](CC(N)=O)C(=O)N[C@H](C(=O)NCC(=O)N[C@@H](CCCNC(=N)N)C(=O)N[C@@H](CC(N)=O)C(=O)N[C@H](C(=O)N[C@@H](Cc1ccc(O)cc1)C(N)=O)[C@@H](C)O)C(C)C)[C@@H](C)O
notes: also called compound 79
B2: N^ε1-[(4S)-4-carboxy-4-(19-carboxynonadecanoylamino)butanoyl]-[Asp14,Arg17,Pro21,Pro27,Pro34,Arg35]-h-amylin (peptide)
peptide: K([γGlu-C20 diacid])CNTATCATQRLADFLRHSSPNFGAIPSSTNVGPRTY-NH2
modifications: disulfide 2-7; N-terminus assumed
SMILES: CC[C@H](C)[C@H](NC(=O)[C@H](C)NC(=O)CNC(=O)[C@H](Cc1ccccc1)NC(=O)[C@H](CC(N)=O)NC(=O)[C@@H]1CCCN1C(=O)[C@H](CO)NC(=O)[C@H](CO)NC(=O)[C@H](Cc1c[nH]cn1)NC(=O)[C@H](CCCNC(=N)N)NC(=O)[C@H](CC(C)C)NC(=O)[C@H](Cc1ccccc1)NC(=O)[C@H](CC(=O)O)NC(=O)[C@H](C)NC(=O)[C@H](CC(C)C)NC(=O)[C@H](CCCNC(=N)N)NC(=O)[C@H](CCC(N)=O)NC(=O)[C@@H](NC(=O)[C@H](C)NC(=O)[C@@H]1CSSC[C@H](NC(=O)[C@@H](N)CCCCNC(=O)CC[C@H](NC(=O)CCCCCCCCCCCCCCCCCCC(=O)O)C(=O)O)C(=O)N[C@@H](CC(N)=O)C(=O)N[C@@H]([C@@H](C)O)C(=O)N[C@@H](C)C(=O)N[C@@H]([C@@H](C)O)C(=O)N1)[C@@H](C)O)C(=O)N1CCC[C@H]1C(=O)N[C@@H](CO)C(=O)N[C@@H](CO)C(=O)N[C@H](C(=O)N[C@@H](CC(N)=O)C(=O)N[C@H](C(=O)NCC(=O)N1CCC[C@H]1C(=O)N[C@@H](CCCNC(=N)N)C(=O)N[C@H](C(=O)N[C@@H](Cc1ccc(O)cc1)C(N)=O)[C@@H](C)O)C(C)C)[C@@H](C)O
B3: N^ε1-[(4S)-4-carboxy-4-(19-carboxynonadecanoylamino)butanoyl]-[His14,Arg17,Pro21,Pro27,Arg34]-h-amylin (peptide)
peptide: K([γGlu-C20 diacid])CNTATCATQRLAHFLRHSSPNFGAIPSSTNVGRNTY-NH2
modifications: disulfide 2-7; N-terminus assumed
SMILES: CC[C@H](C)[C@H](NC(=O)[C@H](C)NC(=O)CNC(=O)[C@H](Cc1ccccc1)NC(=O)[C@H](CC(N)=O)NC(=O)[C@@H]1CCCN1C(=O)[C@H](CO)NC(=O)[C@H](CO)NC(=O)[C@H](Cc1c[nH]cn1)NC(=O)[C@H](CCCNC(=N)N)NC(=O)[C@H](CC(C)C)NC(=O)[C@H](Cc1ccccc1)NC(=O)[C@H](Cc1c[nH]cn1)NC(=O)[C@H](C)NC(=O)[C@H](CC(C)C)NC(=O)[C@H](CCCNC(=N)N)NC(=O)[C@H](CCC(N)=O)NC(=O)[C@@H](NC(=O)[C@H](C)NC(=O)[C@@H]1CSSC[C@H](NC(=O)[C@@H](N)CCCCNC(=O)CC[C@H](NC(=O)CCCCCCCCCCCCCCCCCCC(=O)O)C(=O)O)C(=O)N[C@@H](CC(N)=O)C(=O)N[C@@H]([C@@H](C)O)C(=O)N[C@@H](C)C(=O)N[C@@H]([C@@H](C)O)C(=O)N1)[C@@H](C)O)C(=O)N1CCC[C@H]1C(=O)N[C@@H](CO)C(=O)N[C@@H](CO)C(=O)N[C@H](C(=O)N[C@@H](CC(N)=O)C(=O)N[C@H](C(=O)NCC(=O)N[C@@H](CCCNC(=N)N)C(=O)N[C@@H](CC(N)=O)C(=O)N[C@H](C(=O)N[C@@H](Cc1ccc(O)cc1)C(N)=O)[C@@H](C)O)C(C)C)[C@@H](C)O
notes: also called compound 85
B4: N^ε1-[(4S)-4-carboxy-4-(19-carboxynonadecanoylamino)butanoyl]-[Glu14,Arg17,Pro21,Pro27,His35]-h-amylin (peptide)
peptide: K([γGlu-C20 diacid])CNTATCATQRLAEFLRHSSPNFGAIPSSTNVGSHTY-NH2
modifications: disulfide 2-7; N-terminus assumed
SMILES: CC[C@H](C)[C@H](NC(=O)[C@H](C)NC(=O)CNC(=O)[C@H](Cc1ccccc1)NC(=O)[C@H](CC(N)=O)NC(=O)[C@@H]1CCCN1C(=O)[C@H](CO)NC(=O)[C@H](CO)NC(=O)[C@H](Cc1c[nH]cn1)NC(=O)[C@H](CCCNC(=N)N)NC(=O)[C@H](CC(C)C)NC(=O)[C@H](Cc1ccccc1)NC(=O)[C@H](CCC(=O)O)NC(=O)[C@H](C)NC(=O)[C@H](CC(C)C)NC(=O)[C@H](CCCNC(=N)N)NC(=O)[C@H](CCC(N)=O)NC(=O)[C@@H](NC(=O)[C@H](C)NC(=O)[C@@H]1CSSC[C@H](NC(=O)[C@@H](N)CCCCNC(=O)CC[C@H](NC(=O)CCCCCCCCCCCCCCCCCCC(=O)O)C(=O)O)C(=O)N[C@@H](CC(N)=O)C(=O)N[C@@H]([C@@H](C)O)C(=O)N[C@@H](C)C(=O)N[C@@H]([C@@H](C)O)C(=O)N1)[C@@H](C)O)C(=O)N1CCC[C@H]1C(=O)N[C@@H](CO)C(=O)N[C@@H](CO)C(=O)N[C@H](C(=O)N[C@@H](CC(N)=O)C(=O)N[C@H](C(=O)NCC(=O)N[C@@H](CO)C(=O)N[C@@H](Cc1c[nH]cn1)C(=O)N[C@H](C(=O)N[C@@H](Cc1ccc(O)cc1)C(N)=O)[C@@H](C)O)C(C)C)[C@@H](C)O
B5: N^ε1-[(4S)-4-carboxy-4-(19-carboxynonadecanoylamino)butanoyl]-[Glu14,Arg17,Pro21,Pro27,Pro34,Arg35]-h-amylin (peptide)
peptide: K([γGlu-C20 diacid])CNTATCATQRLAEFLRHSSPNFGAIPSSTNVGPRTY-NH2
modifications: disulfide 2-7; N-terminus assumed
SMILES: CC[C@H](C)[C@H](NC(=O)[C@H](C)NC(=O)CNC(=O)[C@H](Cc1ccccc1)NC(=O)[C@H](CC(N)=O)NC(=O)[C@@H]1CCCN1C(=O)[C@H](CO)NC(=O)[C@H](CO)NC(=O)[C@H](Cc1c[nH]cn1)NC(=O)[C@H](CCCNC(=N)N)NC(=O)[C@H](CC(C)C)NC(=O)[C@H](Cc1ccccc1)NC(=O)[C@H](CCC(=O)O)NC(=O)[C@H](C)NC(=O)[C@H](CC(C)C)NC(=O)[C@H](CCCNC(=N)N)NC(=O)[C@H](CCC(N)=O)NC(=O)[C@@H](NC(=O)[C@H](C)NC(=O)[C@@H]1CSSC[C@H](NC(=O)[C@@H](N)CCCCNC(=O)CC[C@H](NC(=O)CCCCCCCCCCCCCCCCCCC(=O)O)C(=O)O)C(=O)N[C@@H](CC(N)=O)C(=O)N[C@@H]([C@@H](C)O)C(=O)N[C@@H](C)C(=O)N[C@@H]([C@@H](C)O)C(=O)N1)[C@@H](C)O)C(=O)N1CCC[C@H]1C(=O)N[C@@H](CO)C(=O)N[C@@H](CO)C(=O)N[C@H](C(=O)N[C@@H](CC(N)=O)C(=O)N[C@H](C(=O)NCC(=O)N1CCC[C@H]1C(=O)N[C@@H](CCCNC(=N)N)C(=O)N[C@H](C(=O)N[C@@H](Cc1ccc(O)cc1)C(N)=O)[C@@H](C)O)C(C)C)[C@@H](C)O

One test has as its target T1, human calcitonin receptor. In words: cell-based or functional assay.
As to B1, the “hCTR funct. EC50 (pM)” value was determined as 3940 pM.

Consider B2, for which the “Ratio hCT/hAmylin funct.” value was 24.9 and the “hCTR funct. EC50 (pM)” value came to 3640 pM.

In the case of B3, the “hCTR funct. EC50 (pM)” value was 3880 pM.

With K([γGlu-C20 diacid])CNTATCATQRLAEFLRHSSPNFGAIPSSTNVGPHTY-NH2 (disulfide 2-7), the “Ratio hCT/hAmylin funct.” value came to 14.4 and the “hCTR funct. EC50 (pM)” value is 1450 pM.

Consider B4, for which the “Ratio hCT/hAmylin funct.” value came to 13.1 and the “hCTR funct. EC50 (pM)” value was found to be 5580 pM.

Regarding B5, the “Ratio hCT/hAmylin funct.” value came to 17 and the “hCTR funct. EC50 (pM)” value worked out at 6380 pM.

The next test deals with T2, human amylin receptor (amylin 3(a) …). In words: cell-based or functional assay.
In the case of B1, the “hAmylin-R funct. EC50 (pM)” value was 161 pM.

B2: the “hAmylin-R funct. EC50 (pM)” value turned out to be 146 pM.

As to B3, the “hAmylin-R funct. EC50 (pM)” value is 146 pM.

With K([γGlu-C20 diacid])CNTATCATQRLAEFLRHSSPNFGAIPSSTNVGPHTY-NH2 (disulfide 2-7), the “hAmylin-R funct. EC50 (pM)” value came out at 101 pM.

For the molecule B4, the “hAmylin-R funct. EC50 (pM)” value amounted to 425 pM.

Take B5: the “hAmylin-R funct. EC50 (pM)” value came out at 376 pM.
